From patent US20230416371A1 come the findings set out here.

Experiment [1] has as its target human FcγRIIa R (allotype R131) extracellular domain (human) (UniProt P12318). Briefly: SPR Biacore 8K+, 25 C, antibody captured, FcγR as analyte, 1:1 Langmuir model.
The target is the same in experiment [2]. The experiment in a line: SPR Biacore 8K+; KD for FcγRIIb divided by KD for this FcγR.
Experiment [3] shares this target. Briefly: SPR Biacore 8K+; KD of G1d divided by KD of this antibody.

EGL-afucosyl (H240-G1d/L73-k_glycomab) (antibody), sequence (heavy): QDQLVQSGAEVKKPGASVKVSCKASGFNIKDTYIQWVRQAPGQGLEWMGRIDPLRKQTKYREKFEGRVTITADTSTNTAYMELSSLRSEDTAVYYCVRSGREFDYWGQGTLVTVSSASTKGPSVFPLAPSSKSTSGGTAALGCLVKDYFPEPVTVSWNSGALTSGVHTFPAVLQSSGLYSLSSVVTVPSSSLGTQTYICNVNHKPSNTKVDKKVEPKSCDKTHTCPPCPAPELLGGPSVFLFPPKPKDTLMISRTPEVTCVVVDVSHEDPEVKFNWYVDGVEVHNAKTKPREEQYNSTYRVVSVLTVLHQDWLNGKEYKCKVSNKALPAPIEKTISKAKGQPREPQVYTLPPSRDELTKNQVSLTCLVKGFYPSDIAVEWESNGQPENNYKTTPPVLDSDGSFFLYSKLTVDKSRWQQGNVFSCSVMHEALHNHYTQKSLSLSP
EGL-afucosyl (H240-G1d/L73-k_glycomab) (antibody), sequence (VL): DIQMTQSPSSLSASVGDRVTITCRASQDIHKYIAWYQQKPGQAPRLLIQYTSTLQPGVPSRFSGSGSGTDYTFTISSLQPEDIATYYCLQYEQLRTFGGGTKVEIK
EGL-GASDALIE (H240-GASDALIE/L73-k0) (antibody), sequence (heavy): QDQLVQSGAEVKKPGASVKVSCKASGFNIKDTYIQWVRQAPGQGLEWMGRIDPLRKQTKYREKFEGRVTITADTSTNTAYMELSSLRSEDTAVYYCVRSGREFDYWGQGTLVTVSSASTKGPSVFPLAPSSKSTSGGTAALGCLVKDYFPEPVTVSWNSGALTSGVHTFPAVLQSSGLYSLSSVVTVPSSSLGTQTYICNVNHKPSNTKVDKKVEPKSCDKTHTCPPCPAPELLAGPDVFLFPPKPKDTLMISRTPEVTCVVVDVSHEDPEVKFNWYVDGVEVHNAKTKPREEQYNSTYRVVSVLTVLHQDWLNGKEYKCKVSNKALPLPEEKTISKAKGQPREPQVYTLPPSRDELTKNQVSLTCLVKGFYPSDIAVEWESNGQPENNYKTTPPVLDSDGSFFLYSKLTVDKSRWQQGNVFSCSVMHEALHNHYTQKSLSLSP
EGL-GASDALIE (H240-GASDALIE/L73-k0) (antibody), sequence (light): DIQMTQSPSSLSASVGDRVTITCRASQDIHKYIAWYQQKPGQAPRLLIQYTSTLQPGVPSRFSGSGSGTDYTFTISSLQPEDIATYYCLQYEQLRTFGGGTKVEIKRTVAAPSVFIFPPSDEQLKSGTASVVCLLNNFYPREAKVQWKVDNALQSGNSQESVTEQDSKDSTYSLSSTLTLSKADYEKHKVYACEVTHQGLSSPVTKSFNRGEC
human FcγRIIa R (allotype R131) extracellular domain (human), sequence (P12318 34-217 H167R): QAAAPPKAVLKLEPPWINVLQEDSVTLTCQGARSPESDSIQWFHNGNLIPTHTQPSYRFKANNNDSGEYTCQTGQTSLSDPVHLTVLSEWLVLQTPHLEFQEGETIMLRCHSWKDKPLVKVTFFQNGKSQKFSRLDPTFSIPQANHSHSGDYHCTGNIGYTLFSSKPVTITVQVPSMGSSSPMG

With “EGL-GASDALIE (H240-GASDALIE/L73-k0) (antibody)”, the Kd in experiment [1] came out at 161 nM. Moreover, in experiment [2], the A/I ratio (KD for FcγRIIb divided by KD for each FcγR) is 16.5. This substance showed a Relative value to KD between G1d and hFcγRs in experiment [3] of 10.3 times.

The substance “EGL-afucosyl (H240-G1d/L73-k_glycomab) (antibody)” came in with a Kd in experiment [1] of 946 nM. Besides, the A/I ratio (KD for FcγRIIb divided by KD for each FcγR) in experiment [2] was 6. The Relative value to KD between G1d and hFcγRs in experiment [3] stood at 1.8 times.
